From patent publication US20260242735A1 (UNIVERSIT T BASEL, published 2026)

Assays:
human wild-type CD33 = target: T1, human wild-type CD33 (human, UniProt P20138 18-364); experiment: flow cytometry, IgG at 0.25 ug/ml on HEK293-T cells expressing CD33 against vector alone
T1 construct: also called SIGLEC3; P67
Description: Binding of the antibodies to the transfected cells and the optimal assay conditions were evaluated in 384-well format. Detection of cellular expression was measured via high-throughput flow cytometry. Serial dilutions of each antibody were tested for immunoreactivity against cells expressing CD33 or vector alone. The optimal screening concentration for each antibody was determined based on the raw signal values and signal-to-background calculations. Each point represents the mean of four replicates.

human CD33 S131Q = human CD33 S131Q (human, UniProt P20138 18-364); experiment: flow cytometry, HEK293-T, IgG;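 also: CD33 point mutants transiently expressed, antibody binding measured by fluorescence in duplicate, background subtracted and scaled to binding on wild-type CD33 as 100%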
Chain of human CD33 S131Q (P20138 18-364 S131Q limits assumed): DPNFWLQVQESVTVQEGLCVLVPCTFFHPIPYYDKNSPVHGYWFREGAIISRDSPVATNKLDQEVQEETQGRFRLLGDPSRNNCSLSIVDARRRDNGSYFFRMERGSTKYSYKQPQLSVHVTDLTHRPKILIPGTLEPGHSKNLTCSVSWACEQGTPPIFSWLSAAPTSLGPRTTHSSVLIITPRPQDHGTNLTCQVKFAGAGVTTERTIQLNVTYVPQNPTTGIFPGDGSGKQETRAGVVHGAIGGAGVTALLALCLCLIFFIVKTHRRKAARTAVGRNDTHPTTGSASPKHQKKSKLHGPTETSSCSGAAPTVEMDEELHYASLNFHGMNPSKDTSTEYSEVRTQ
Description: (§1) An alanine scan on human CD33 was performed to the determine the residues on CD33 that are involved in binding to the antibodies investigated. […] Briefly, a mutation library of CD33 was created by high-throughput, site-directed mutagenesis. Each residue was individually mutated to alanine, with alanine codons mutated to serine. The mutant library was arrayed in 384-well microplates and transiently transfected into HEK293-T. Following transfection, cells were incubated with the indicated antibodies (IgG or Fab) at concentrations pre-determined using an independent immunofluorescence titration curve on wild type CD33. […] Binding of each antibody to each mutant clone was determined in duplicates. For each point, background fluorescence was subtracted from the raw data, which were then normalized to antibody reactivity with wild type CD33.
(§2) Antibodies were screened for binding to the human CD33 variants in IgG format. […] For each mutation, background fluorescence was subtracted from the raw data, which were then normalized to antibody reactivity with wild-type CD33.

human CD33 S131K = human CD33 S131K (human, UniProt P20138 18-364); experiment: flow cytometry, HEK293-T, IgG;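 also: CD33 point mutants transiently expressed, antibody binding measured by fluorescence in duplicate, background subtracted and scaled to binding on wild-type CD33 as 100%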
Chain of human CD33 S131K (P20138 18-364 S131K limits assumed): as the sequence (P20138 18-364 S131Q limits assumed) above, with Q114K counted along it
Description: as §1, §2

human CD33 S131D = human CD33 S131D (human, UniProt P20138 18-364); experiment: flow cytometry, HEK293-T, IgG;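 also: CD33 point mutants transiently expressed, antibody binding measured by fluorescence in duplicate, background subtracted and scaled to binding on wild-type CD33 as 100%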
Chain of human CD33 S131D (P20138 18-364 S131D limits assumed): as the sequence (P20138 18-364 S131Q limits assumed) above, with Q114D counted along it
Description: as §1, §2

human CD33 L134T = human CD33 L134T (human, UniProt P20138 18-364); experiment: flow cytometry, HEK293-T, IgG;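 also: CD33 point mutants transiently expressed, antibody binding measured by fluorescence in duplicate, background subtracted and scaled to binding on wild-type CD33 as 100%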
Chain of human CD33 L134T (P20138 18-364 L134T limits assumed): as the sequence (P20138 18-364 S131Q limits assumed) above, with Q114S, L117T counted along it
Description: as §1, §2

human CD33 P132K = human CD33 P132K (human, UniProt P20138 18-364); experiment: flow cytometry, HEK293-T, IgG
Chain of human CD33 P132K (P20138 18-364 P132K limits assumed): as the sequence (P20138 18-364 S131Q limits assumed) above, with Q114S, P115K counted along it
Description: as §1, §2

human CD33 P132F = human CD33 P132F (human, UniProt P20138 18-364); experiment: flow cytometry, HEK293-T, IgG
Chain of human CD33 P132F (P20138 18-364 P132F limits assumed): as the sequence (P20138 18-364 S131Q limits assumed) above, with Q114S, P115F counted along it
Description: as §1, §2

human CD33 S131N = human CD33 S131N (human, UniProt P20138 18-364); experiment: flow cytometry, HEK293-T, IgG
Chain of human CD33 S131N (P20138 18-364 S131N limits assumed): as the sequence (P20138 18-364 S131Q limits assumed) above, with Q114N counted along it
Description: as §1, §2

human CD33 P132S = human CD33 P132S (human, UniProt P20138 18-364); experiment: flow cytometry, HEK293-T, IgG
Chain of human CD33 P132S (P20138 18-364 P132S limits assumed): as the sequence (P20138 18-364 S131Q limits assumed) above, with Q114S, P115S counted along it
Description: as §1, §2

human CD33 L134M = human CD33 L134M (human, UniProt P20138 18-364); experiment: flow cytometry, HEK293-T, IgG
Chain of human CD33 L134M (P20138 18-364 L134M limits assumed): as the sequence (P20138 18-364 S131Q limits assumed) above, with Q114S, L117M counted along it
Description: as §1, §2

human CD33 S131Y = human CD33 S131Y (human, UniProt P20138 18-364); experiment: flow cytometry, HEK293-T, IgG
Chain of human CD33 S131Y (P20138 18-364 S131Y limits assumed): as the sequence (P20138 18-364 S131Q limits assumed) above, with Q114Y counted along it
Description: as §1, §2

human CD33 S131F = human CD33 S131F (human, UniProt P20138 18-364); experiment: flow cytometry, HEK293-T, IgG
Chain of human CD33 S131F (P20138 18-364 S131F limits assumed): as the sequence (P20138 18-364 S131Q limits assumed) above, with Q114F counted along it
Description: as §1, §2

human CD33 S131W = human CD33 S131W (human, UniProt P20138 18-364); experiment: flow cytometry, HEK293-T, IgG
Chain of human CD33 S131W (P20138 18-364 S131W limits assumed): as the sequence (P20138 18-364 S131Q limits assumed) above, with Q114W counted along it
Description: as §1, §2

human CD33 P132T = human CD33 P132T (human, UniProt P20138 18-364); experiment: flow cytometry, HEK293-T, IgG
Chain of human CD33 P132T (P20138 18-364 P132T limits assumed): as the sequence (P20138 18-364 S131Q limits assumed) above, with Q114S, P115T counted along it
Description: as §1, §2

human CD33 P132H = human CD33 P132H (human, UniProt P20138 18-364); experiment: flow cytometry, HEK293-T, IgG
Chain of human CD33 P132H (P20138 18-364 P132H limits assumed): as the sequence (P20138 18-364 S131Q limits assumed) above, with Q114S, P115H counted along it
Description: as §1, §2

human CD33 S131I = human CD33 S131I (human, UniProt P20138 18-364); experiment: flow cytometry, HEK293-T, IgG
Chain of human CD33 S131I (P20138 18-364 S131I limits assumed): as the sequence (P20138 18-364 S131Q limits assumed) above, with Q114I counted along it
Description: as §1, §2

human CD33 P132D = human CD33 P132D (human, UniProt P20138 18-364); experiment: flow cytometry, HEK293-T, IgG
Chain of human CD33 P132D (P20138 18-364 P132D limits assumed): as the sequence (P20138 18-364 S131Q limits assumed) above, with Q114S, P115D counted along it
Description: as §1, §2

human CD33 L134R = human CD33 L134R (human, UniProt P20138 18-364); experiment: flow cytometry, HEK293-T, IgG
Chain of human CD33 L134R (P20138 18-364 L134R limits assumed): as the sequence (P20138 18-364 S131Q limits assumed) above, with Q114S, L117R counted along it
Description: as §1, §2

human CD33 L134F = human CD33 L134F (human, UniProt P20138 18-364); experiment: flow cytometry, HEK293-T, IgG
Chain of human CD33 L134F (P20138 18-364 L134F limits assumed): as the sequence (P20138 18-364 S131Q limits assumed) above, with Q114S, L117F counted along it
Description: as §1, §2

human CD33 S131M = human CD33 S131M (human, UniProt P20138 18-364); experiment: flow cytometry, HEK293-T, IgG
Chain of human CD33 S131M (P20138 18-364 S131M limits assumed): as the sequence (P20138 18-364 S131Q limits assumed) above, with Q114M counted along it
Description: as §1, §2

human CD33 L134I = human CD33 L134I (human, UniProt P20138 18-364); experiment: flow cytometry, HEK293-T, IgG
Chain of human CD33 L134I (P20138 18-364 L134I limits assumed): as the sequence (P20138 18-364 S131Q limits assumed) above, with Q114S, L117I counted along it
Description: as §1, §2

human CD33 S131H = human CD33 S131H (human, UniProt P20138 18-364); experiment: flow cytometry, HEK293-T, IgG
Chain of human CD33 S131H (P20138 18-364 S131H limits assumed): as the sequence (P20138 18-364 S131Q limits assumed) above, with Q114H counted along it
Description: as §1, §2

human CD33 P132Y = human CD33 P132Y (human, UniProt P20138 18-364); experiment: flow cytometry, HEK293-T, IgG
Chain of human CD33 P132Y (P20138 18-364 P132Y limits assumed): as the sequence (P20138 18-364 S131Q limits assumed) above, with Q114S, P115Y counted along it
Description: as §1, §2

human CD33 L134Q = human CD33 L134Q (human, UniProt P20138 18-364); experiment: flow cytometry, HEK293-T, IgG
Chain of human CD33 L134Q (P20138 18-364 L134Q limits assumed): as the sequence (P20138 18-364 S131Q limits assumed) above, with Q114S, L117Q counted along it
Description: as §1, §2

human CD33 P132N = human CD33 P132N (human, UniProt P20138 18-364); experiment: flow cytometry, HEK293-T, IgG
Chain of human CD33 P132N (P20138 18-364 P132N limits assumed): as the sequence (P20138 18-364 S131Q limits assumed) above, with Q114S, P115N counted along it
Description: as §1, §2

human CD33 P132L = human CD33 P132L (human, UniProt P20138 18-364); experiment: flow cytometry, HEK293-T, IgG
Chain of human CD33 P132L (P20138 18-364 P132L limits assumed): as the sequence (P20138 18-364 S131Q limits assumed) above, with Q114S, P115L counted along it
Description: as §1, §2

human CD33 S131T = human CD33 S131T (human, UniProt P20138 18-364); experiment: flow cytometry, HEK293-T, IgG
Chain of human CD33 S131T (P20138 18-364 S131T limits assumed): as the sequence (P20138 18-364 S131Q limits assumed) above, with Q114T counted along it
Description: as §1, §2

human CD33 P132Q = human CD33 P132Q (human, UniProt P20138 18-364); experiment: flow cytometry, HEK293-T, IgG
Chain of human CD33 P132Q (P20138 18-364 P132Q limits assumed): as the sequence (P20138 18-364 S131Q limits assumed) above, with Q114S, P115Q counted along it
Description: as §1, §2

human CD33 P132V = human CD33 P132V (human, UniProt P20138 18-364); experiment: flow cytometry, HEK293-T, IgG
Chain of human CD33 P132V (P20138 18-364 P132V limits assumed): as the sequence (P20138 18-364 S131Q limits assumed) above, with Q114S, P115V counted along it
Description: as §1, §2

T1 sequence (P20138 18-364 limits assumed): as the sequence (P20138 18-364 S131Q limits assumed) above, with Q114S counted along it

Mean % WT Binding (human CD33 S131Q) [% WT binding] | Mean % WT Binding (human CD33 S131K) [% WT binding] | Mean % WT Binding (human CD33 S131D) [% WT binding] | Mean % WT Binding (human CD33 L134T) [% WT binding] | Mean % WT Binding (human CD33 P132K) [% WT binding] | Mean % WT Binding (human CD33 P132F) [% WT binding] | Mean % WT Binding (human CD33 S131N) [% WT binding] | Mean % WT Binding (human CD33 P132S) [% WT binding] | Mean % WT Binding (human CD33 L134M) [% WT binding] | Mean % WT Binding (human CD33 S131Y) [% WT binding] | Mean % WT Binding (human CD33 S131F) [% WT binding] | Mean % WT Binding (human CD33 S131W) [% WT binding] | Mean % WT Binding (human CD33 P132T) [% WT binding] | Mean % WT Binding (human CD33 P132H) [% WT binding] | Mean % WT Binding (human CD33 S131I) [% WT binding] | Mean % WT Binding (human CD33 P132D) [% WT binding] | Mean % WT Binding (human CD33 L134R) [% WT binding] | Mean % WT Binding (human CD33 L134F) [% WT binding] | Mean % WT Binding (human CD33 S131M) [% WT binding] | Mean % WT Binding (human CD33 L134I) [% WT binding] | Binder | other results
– | – | – | – | – | – | – | – | – | – | – | – | – | – | – | – | – | – | – | – | Refmab #1 (antibody, human IgG1, V domains shown, Full-length MAb format, human IgG1; also called hP67.6) VH: EVQLVQSGAEVKKPGSSVKVSCKASGYTITDSNIHWVRQAPGQSLEWIGYIYPYNGGTDYNQKFKNRATLTVDNPTNTAYMELSSLRSEDTAFYYCVNGNPWLAYWGQGTLVTVSS VL: DIQLTQSPSTLSASVGDRVTITCRASESLDNYGIRFLTWFQQKPGKAPKLLMYAASNQGSGVPSRFSGSGSGTEFTLTISSLQPDDFATYYCQQTKEVPWSFGQGTKVEVK | Signal:Background (human wild-type CD33): 44 signal:background ratio
101 | 102 | 91.9 | 91.6 | 99.6 | 91.3 | 94.6 | 92.9 | 81.2 | 97.7 | 95.6 | 97.6 | 98.9 | 84.9 | 96.6 | 89.9 | 3.1 | 92.5 | 105 | 106 | Refmab #1 (antibody, human IgG1, V domains shown, tested in IgG format; also called hP67.6) VH: EVQLVQSGAEVKKPGSSVKVSCKASGYTITDSNIHWVRQAPGQSLEWIGYIYPYNGGTDYNQKFKNRATLTVDNPTNTAYMELSSLRSEDTAFYYCVNGNPWLAYWGQGTLVTVSS VL: DIQLTQSPSTLSASVGDRVTITCRASESLDNYGIRFLTWFQQKPGKAPKLLMYAASNQGSGVPSRFSGSGSGTEFTLTISSLQPDDFATYYCQQTKEVPWSFGQGTKVEVK | Mean % WT Binding (human CD33 S131H): 96.4 % WT binding; Mean % WT Binding (human CD33 P132Y): 93.5 % WT binding; Mean % WT Binding (human CD33 L134Q): 83 % WT binding; Mean % WT Binding (human CD33 P132N): 91.4 % WT binding; Mean % WT Binding (human CD33 P132L): 94.6 % WT binding; Mean % WT Binding (human CD33 S131T): 97.2 % WT binding; Mean % WT Binding (human CD33 P132Q): 91.7 % WT binding; Mean % WT Binding (human CD33 P132V): 105 % WT binding
93.9 | 87.7 | 93.9 | 101 | 65 | 79.4 | 118 | 95.8 | 106 | 97.4 | 103 | 91.9 | 106 | 87.8 | 95.7 | 92.7 | 1 | 104 | 91.9 | 108 | Refmab #3 (antibody, human IgG1, V domains shown, tested in IgG format) VH: QVQLVQSGAEVKKPGSSVKVSCKASGYTFTDYNMHWVRQAPGQGLEWIGYIYPYNGGTGYNQKFKSKATITADESTNTAYMELSSLRSEDTAVYYCARGRPAMDYWGQGTLVTVSS VL: DIQMTQSPSSLSASVGDRVTITCRASESVDNYGISFMNWFQQKPGKAPKLLIYAASNQGSGVPSRFSGSGSGTDFTLTISSLQPDDFATYYCQQSKEVPWTFGQGTKVEIK | Mean % WT Binding (human CD33 S131H): 100 % WT binding; Mean % WT Binding (human CD33 P132Y): 85.2 % WT binding; Mean % WT Binding (human CD33 L134Q): 87.7 % WT binding; Mean % WT Binding (human CD33 P132N): 94.5 % WT binding; Mean % WT Binding (human CD33 P132L): 94.4 % WT binding; Mean % WT Binding (human CD33 S131T): 116 % WT binding; Mean % WT Binding (human CD33 P132Q): 80.1 % WT binding; Mean % WT Binding (human CD33 P132V): 86.6 % WT binding
– | – | – | – | – | – | – | – | – | – | – | – | – | – | – | – | – | – | – | – | Refmab #4 (antibody, human IgG1, V domains shown, Full-length MAb format, human IgG1 Fc silent (PG-LALA)) VH: QVQLVQSGAEVKKPGESVKVSCKASGYTFTNYGMNWVKQAPGQGLEWMGWINTYTGEPTYADKFQGRVTMTTDTSTSTAYMEIRNLGGDDTAVYYCARWSWSDGYYVYFDYWGQGTSVTVSS VL: DIVMTQSPDSLTVSLGERTTINCKSSQSVLDSSTNKNSLAWYQQKPGQPPKLLLSWASTRESGIPDRFSGSGSGTDFTLTIDSPQPEDSATYYCQQSAHFPITFGQGTRLEIK | Signal:Background (human wild-type CD33): 38 signal:background ratio
97.3 | 100 | 97.5 | 90.3 | 102 | 71.3 | 105 | 102 | 99 | 85.7 | 91.8 | 87.5 | 99.8 | 92.7 | 99.6 | 99.6 | 2.4 | 90.6 | 97.6 | 94.4 | Refmab #4 (antibody, human IgG1, V domains shown, tested in IgG format) VH: QVQLVQSGAEVKKPGESVKVSCKASGYTFTNYGMNWVKQAPGQGLEWMGWINTYTGEPTYADKFQGRVTMTTDTSTSTAYMEIRNLGGDDTAVYYCARWSWSDGYYVYFDYWGQGTSVTVSS VL: DIVMTQSPDSLTVSLGERTTINCKSSQSVLDSSTNKNSLAWYQQKPGQPPKLLLSWASTRESGIPDRFSGSGSGTDFTLTIDSPQPEDSATYYCQQSAHFPITFGQGTRLEIK | Mean % WT Binding (human CD33 S131H): 103 % WT binding; Mean % WT Binding (human CD33 P132Y): 78.6 % WT binding; Mean % WT Binding (human CD33 L134Q): 86.8 % WT binding; Mean % WT Binding (human CD33 P132N): 100 % WT binding; Mean % WT Binding (human CD33 P132L): 96.7 % WT binding; Mean % WT Binding (human CD33 S131T): 102 % WT binding; Mean % WT Binding (human CD33 P132Q): 86.9 % WT binding; Mean % WT Binding (human CD33 P132V): 94.7 % WT binding
110 | 91.2 | 101 | 99.2 | 119 | 65.1 | 126 | 110 | 105 | 98.5 | 111 | 92.4 | 103 | 101 | 110 | 73.6 | 2.5 | 106 | 108 | 105 | Refmab #2 (antibody, human IgG1, V domains shown, tested in IgG format) VH: QVQLVQSGAEVKKPGSSVKVSCKASGGTFSDYAISWVRQAPGQGLEWMGRIIPILGVADYAQKFQGRVTITADKSTRTAYMELSSLRSEDTAVYYCARNWADAFDIWGQGTMVTVSS VL: DIQLTQSPSSLSASVGDRVTITCRASQGISSVLAWYQQKPGKAPKLLIYDASSLESGVPSRFSGSGSGTDFTLTISSLQPEDFATYYCQQFDSSITFGQGTKLEIK | Mean % WT Binding (human CD33 S131H): 112 % WT binding; Mean % WT Binding (human CD33 P132Y): 65 % WT binding; Mean % WT Binding (human CD33 L134Q): 77.4 % WT binding; Mean % WT Binding (human CD33 P132N): 100 % WT binding; Mean % WT Binding (human CD33 P132L): 116 % WT binding; Mean % WT Binding (human CD33 S131T): 111 % WT binding; Mean % WT Binding (human CD33 P132Q): 83.4 % WT binding; Mean % WT Binding (human CD33 P132V): 102 % WT binding
